Test results as given in the supplement of paper PMC12764529.
± gives the half width of the 95% confidence interval.

Legend:
[1] = folding stability dG unfold from trypsin proteolysis; higher = more stable
Procedure, shortened: (§1)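 Unfolding free energy was derived, per protease or combined, against a sequence-predicted unfolded-state K50 and a shared folded-state K50, starting from K50 inferred by Bayesian fitting of sequencing counts. Digestion with trypsin and chymotrypsin was carried out on designed mini-proteins under 80 residues without cysteine in a PA-tagged cDNA display construct. Only designs with AlphaFold2 dimer inter-PAE above 15 were kept.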

[2] = folding stability dG unfold (combined trypsin and chymotrypsin); higher = more stable
Procedure, shortened: as §1

[3] = folding stability dG unfold from chymotrypsin proteolysis; higher = more stable
Procedure, shortened: as §1

Row | Sequence | folding stability dG unfold [1] [kcal/mol] | folding stability dG unfold [2] [kcal/mol] | folding stability dG unfold [3] [kcal/mol]
1 | SAGGSAGGSAGMLIELTVETSVTTVSTPDATFTVVTLKEPGKPETLGTVVYDPATGSPALSAGGSAGGSAGG [r11_645_JUSTAS] | 0.615 ± 0.036 | 0.168 ± 0.14 | -0.959 ± 0.39
2 | SAGGSAGGSAGMLKKSPSPSIITVKIKPPDSDEVKTINIPPDKPEEVEKLREKGLEIEVLSAGGSAGGSAGG [r11_1006_JUSTAS] | -0.459 ± 0.35 | -0.211 ± 0.26 | -0.178 ± 0.37
3 | SAGGSAGGSAGMMKVRIRVDGKEIEIEVPPGMTVDEIAERLKKEFGKDIEIEVEEVKPEPSAGGSAGGSAGG [r11_805_TrROS_Hall] | 3.72 ± 0.23 | 3.39 ± 0.22 | 3.17 ± 0.1
4 | SAGGSAGGSAGMPEVEVEVKIIKFDKEKNVFVIEVTDKKTGKRVTLTIKNGKIELKVEEPSAGGSAGGSAGG [r17_370_TrROS_Hall] | 2.85 ± 0.098 | 3.7 ± 0.19 | 4.06 ± 0.089
5 | SAGGSAGGSAGMPKRKITKIETEELPPELIRVTITLPDGTPVPVVVSPDDEEVKAIIEKLSAGGSAGGSAGG [r11_122_JUSTAS] | -0.0513 ± 0.3 | 0.311 ± 0.24 | 0.113 ± 0.13
6 | SAGGSAGGSAGMPLTVLGTEEIGDSTTVTTKDPTSDELYRKTYTNGAVSSTEIVPASELGSAGGSAGGSAGG [r11_19_JUSTAS] | 0.0214 ± 0.053 | 0.217 ± 0.072 | 0.282 ± 0.07
7 | SAGGSAGGSAGMPVKVVLVKWKGGGLEPEGGEEREVEIGPEELEKLVKEAEKEGYEVYPASAGGSAGGSAGG [r17_18_TrMRF] | 0.165 ± 0.11 | 0.0684 ± 0.36 | -0.126 ± 0.35
8 | SAGGSAGGSAGMRLVTITLTTEKPIFDENGNPIGTTTRTVVLEREVPEPEVPEVPLYQALSAGGSAGGSAGG [r11_131_JUSTAS] | 0.304 ± 0.18 | 0.261 ± 0.17 | 0.189 ± 0.18
9 | SAGGSAGGSAGMRTITIPIPDGDPENIEEQARELADAFPDLKGKKVNIEYHKDGWITITVSAGGSAGGSAGG [r17_324_TrROS] | 0.694 ± 0.15 | 1.15 ± 0.18 | 1.19 ± 0.1
10 | SAGGSAGGSAGMRYEIEVEEVPPGLVRIRVRVDGKEYTILISEEEAKRLAEELGVEIEPVSAGGSAGGSAGG [r17_109_TrROS_Hall] | 3.24 ± 0.12 | 2.76 ± 0.19 | 2.28 ± 0.07
11 | SAGGSAGGSAGMSVSLTSTTVSLPPELLSPEEAARTEDAVVTTTTSTLPAVVDPATGTVTSAGGSAGGSAGG [r17_310_JUSTAS] | 1.92 ± 0.057 | 1.39 ± 0.092 | 0.518 ± 0.043
12 | SAGGSAGGSAGMTITKTEDGTYRLTLTVTETLPNGSTVTRTVTLTVPLEDAEEILAALPPSAGGSAGGSAGG [r11_505_TrROS_Hall] | 2.52 ± 0.11 | 2.72 ± 0.089 | 2.87 ± 0.032
13 | SAGGSAGGSAGMTITLPNGAEITSIEINEDGTITITVRVNGKTLTLTITVTLPPPPPEEPSAGGSAGGSAGG [r17_421_TrROS_Hall] | 3.67 ± 0.17 | 3.69 ± 0.18 | 3.54 ± 0.16
14 | SAGGSAGGSAGMTLIYKDPETGKYYIVDFEESGPERVFEVDSLDEAEEIAEKLGRKLDPLSAGGSAGGSAGG [r11_1049_TrMRF] | 1.39 ± 0.029 | 2.31 ± 0.055 | 2.591 ± 0.018
15 | SAGGSAGGSAGMTVEEFTIPEVGGRVIRTTVEEPTEDGVVVRRRYLILVNPDGTVERRPESAGGSAGGSAGG [r11_911_JUSTAS] | -0.0463 ± 0.17 | 0.111 ± 0.092 | 0.13 ± 0.17
16 | SAGGSAGGSAGMTVPPELSVTITRSPEGSLRVESPVPDRELTIPPDVPLTVSPDNVVTVASAGGSAGGSAGG [r17_49_JUSTAS] | 0.451 ± 0.031 | 0.655 ± 0.041 | 0.783 ± 0.017
17 | SAGGSAGGSAGMTVPTSVEVSPDGTVRVRQLRWVRHGDGWRPFTFTVTLPISDDALKALKSAGGSAGGSAGG [r17_415_TrMRF] | 1.02 ± 0.038 | 1.12 ± 0.038 | 1.14 ± 0.059
18 | SAGGSAGGSAGMVIEDPSGVTTVVTFDTSVPVVTTTTLTKDPNSNNYTTTTTTTPVTVPVSAGGSAGGSAGG [r17_491_JUSTAS] | 1.34 ± 0.099 | 1.06 ± 0.073 | 0.725 ± 0.11

Row | Sequence | folding stability dG unfold [1] [kcal/mol] | folding stability dG unfold [2] [kcal/mol] | folding stability dG unfold [3] [kcal/mol]
19 | SAGGSAGGSAGMVIERPDDKVLVILGYDPEKGKVYVAVYDPKTGEVRFKEFDNLEDEIKDSAGGSAGGSAGG [r17_300_TrMRF] | 2.16 ± 0.11 | 1.91 ± 0.17 | 1.76 ± 0.08
20 | SAGGSAGGSAGMVIEVGGKKVTIEKNEDGSLKITVTDKNGKKKEITIPGMSLEEILKALKSAGGSAGGSAGG [r11_934_TrROS_Hall] | 3.23 ± 0.076 | 2.9 ± 0.081 | 2.57 ± 0.036
21 | SAGGSAGGSAGMVINVTVTLKNSTGTITITLPVPPDLLDEVLKELKEKPDYEVVSVDTSPSAGGSAGGSAGG [r11_692_JUSTAS] | 2.47 ± 0.11 | 2.67 ± 0.14 | 2.79 ± 0.16
22 | SAGGSAGGSAGMVITKDPNGNYTVDLVLPDGTPLDSGTITLEEVEKILKERGIPLKEIFGSAGGSAGGSAGG [r11_521_JUSTAS] | -0.271 ± 0.27 | 0.361 ± 0.12 | 0.543 ± 0.048
23 | SAGGSAGGSAGMVKLRFEVKFKIKLLGEGETNEVVEVDVKVEFEVTLPPFKVRPDGSLLESAGGSAGGSAGG [r11_558_TrMRF] | 3.2 ± 0.24 | 4.03 ± 0.21 | 4.39 ± 0.15
24 | SAGGSAGGSAGMVKVKITAPPNASLDAIIKAVKDNGAEIISIERKGNELIIEVEIPEENASAGGSAGGSAGG [r11_672_TrMRF] | 1.54 ± 0.054 | 1.42 ± 0.062 | 1.28 ± 0.046
25 | SAGGSAGGSAGMVLRVRTKDGKVIEIKDLSEELKNMTAEQLAEELKKKFPDLKIEVEEVPSAGGSAGGSAGG [r17_42_TrROS_Hall] | 2.19 ± 0.14 | 2.37 ± 0.15 | 2.26 ± 0.05
26 | SAGGSAGGSAGNKDYPVIEVTYPFPPGAPASDIKDFAEPFGFESIEFDDNGTVKVYFYLPSAGGSAGGSAGG [r11_961_TrROS] | 0.737 ± 0.051 | 0.825 ± 0.087 | 0.818 ± 0.11
27 | SAGGSAGGSAGNKPVTVRFTIKIPLPNGKKLEIPVEVTYDSPEDRDRAEKEAEEIAREFLSAGGSAGGSAGG [r17_510_TrROS] | 1.5 ± 0.057 | 1.36 ± 0.097 | 1.11 ± 0.098
28 | SAGGSAGGSAGNMEVIEEVEFTFPGLGVKISVSIFKTDGGIVIMIDIEIPMPPEDRKKFKSAGGSAGGSAGG [r17_431_TrROS] | 0.857 ± 0.097 | 1.25 ± 0.15 | 1.61 ± 0.18
29 | SAGGSAGGSAGNPPNKPKPIIKVVPFRYRFYIPETGSVIEIDIYVFEDDTVKIKIKTYPLSAGGSAGGSAGG [r11_883_TrMRF] | 3.73 ± 0.28 | 5.03 ± 0.22 | 5.38 ± 0.2
30 | SAGGSAGGSAGNYMVRLEIEMPENGRKVEWMVPEDDPEEILEKFPWLKEHGMEVKIEVFPSAGGSAGGSAGG [r17_176_TrROS] | 0.236 ± 0.037 | 0.498 ± 0.1 | 0.638 ± 0.08
31 | SAGGSAGGSAGPALRIPFLVERPDGSPFWAEARVYEDGTVELRIYGDEPIATFTFPLDELSAGGSAGGSAGG [r11_327_TrMRF] | 1.55 ± 0.044 | 1.68 ± 0.15 | 1.6 ± 0.15
32 | SAGGSAGGSAGPFEGYRDKKGKYYLETPDGTKELDSEEELEEEKKRLLEEGIPINVKPSASAGGSAGGSAGG [r17_35_JUSTAS] | -0.308 ± 0.11 | 0.458 ± 0.26 | 0.71 ± 0.14
33 | SAGGSAGGSAGPIDPNSTRPVPADYVVIRIRGDEKPRYFVVHPEYAKEFAERHGAELYYESAGGSAGGSAGG [r17_109_TrMRF] | 0.0223 ± 0.14 | 0.44 ± 0.076 | 0.582 ± 0.082
34 | SAGGSAGGSAGPIIPPNFEVVDVFETETSYYILVKNPETGRYYVARYDPLTGKIEVFEVSSAGGSAGGSAGG [r11_896_TrMRF] | 3.46 ± 0.1 | 4.52 ± 0.1 | 4.75 ± 0.065
35 | SAGGSAGGSAGPKIPKNYKIVATYTVPPTNKKKLILYDPKTNKPLIFDTVSGKIYPFGKKSAGGSAGGSAGG [r11_268_TrMRF] | 1.59 ± 0.027 | 1.84 ± 0.097 | 2 ± 0.11
36 | SAGGSAGGSAGPLRPRLYRVRFTNPDGSRREFLVPEGATLEEILKRFNIPESGRVELEPVSAGGSAGGSAGG [r11_340_TrMRF] | 2.3 ± 0.033 | 2.26 ± 0.082 | 2.04 ± 0.07
